Results reported in paper PMC5469796, “Interaction of PKR with single-stranded RNA”.
Where “and” joins values, the source holds several entries; their conditions need not be identical. Equal values may be shown once.

Tests used:
[1] = biological target: 229-kinase (UniProt P19525); experiment: sedimentation velocity AUC; conditions: AU75: 75 mM HEPES pH 7.5, 75 mM NaCl, 0.1 mM EDTA, 0.1 mM TCEP, 20 °C, 50,000 rpm, 260 nm; errors are confidence intervals (95% joint stated for Table 2) …
[2] = biological target: 242-kinase (UniProt P19525); experiment: sedimentation velocity AUC; conditions: AU75: 75 mM HEPES pH 7.5, 75 mM NaCl, 0.1 mM EDTA, 0.1 mM TCEP, 20 °C, 50,000 rpm, 260 nm; errors are confidence intervals (95% joint stated for Table 2) …
[3] = biological target: 229-kinase (UniProt P19525 229-551); experiment: sedimentation velocity AUC; Kd1, sequential 2:1; AU75: 75 mM HEPES pH 7.5, 75 mM NaCl, 0.1 mM EDTA, 0.1 mM TCEP, 20 °C, 50,000 rpm, 260 nm; errors are confidence intervals (95% joint stated for Table 2); crosslinking in AU75 + 10 mM EDTA, 0.5 µM RNA, 1 µM protein, on ice before UV; conditions: protein: recombinant; tags: TEV-cleaved, extra N-terminal Gly; chain copies: 2; single strand
[4] = biological target: PKR full length (UniProt P19525 1-551); experiment: as above; conditions: protein: recombinant, chain copies: 2
[5] = biological target: T1, PKR dsRBD (UniProt P19525 1-184); experiment: sedimentation velocity AUC; Kd1; footnote b not in material; AU75: 75 mM HEPES pH 7.5, 75 mM NaCl, 0.1 mM EDTA, 0.1 mM TCEP, 20 °C, 50,000 rpm, 260 nm; errors are confidence intervals (95% joint stated for Table 2); crosslinking in AU75 + 10 mM EDTA, 0.5 µM RNA, 1 µM protein, on ice before UV; conditions: protein: recombinant; chain copies: 2; weak predicted secondary structure
[6] = biological target: 242-kinase (UniProt P19525 242-551); experiment: sedimentation velocity AUC; 1:1 model; second protein not detected; AU75: 75 mM HEPES pH 7.5, 75 mM NaCl, 0.1 mM EDTA, 0.1 mM TCEP, 20 °C, 50,000 rpm, 260 nm; errors are confidence intervals (95% joint stated for Table 2); crosslinking in AU75 + 10 mM EDTA, 0.5 µM RNA, 1 µM protein, on ice before UV; conditions: protein: recombinant; tags: TEV-cleaved; single strand
[7] = biological target: 185-kinase (UniProt P19525 185-551); experiment: sedimentation velocity AUC; Kd1, sequential 2:1; AU75: 75 mM HEPES pH 7.5, 75 mM NaCl, 0.1 mM EDTA, 0.1 mM TCEP, 20 °C, 50,000 rpm, 260 nm; errors are confidence intervals (95% joint stated for Table 2); crosslinking in AU75 + 10 mM EDTA, 0.5 µM RNA, 1 µM protein, on ice before UV; conditions: protein: recombinant; tags: TEV-cleaved, extra N-terminal Gly; chain copies: 2; single strand
[8] = biological target: T1, PKR dsRBD; experiment: as above; conditions: protein: recombinant; chain copies: 2; single strand
[9] = weak predicted secondary structure

Sequence of PKR full length (P19525 whole entry): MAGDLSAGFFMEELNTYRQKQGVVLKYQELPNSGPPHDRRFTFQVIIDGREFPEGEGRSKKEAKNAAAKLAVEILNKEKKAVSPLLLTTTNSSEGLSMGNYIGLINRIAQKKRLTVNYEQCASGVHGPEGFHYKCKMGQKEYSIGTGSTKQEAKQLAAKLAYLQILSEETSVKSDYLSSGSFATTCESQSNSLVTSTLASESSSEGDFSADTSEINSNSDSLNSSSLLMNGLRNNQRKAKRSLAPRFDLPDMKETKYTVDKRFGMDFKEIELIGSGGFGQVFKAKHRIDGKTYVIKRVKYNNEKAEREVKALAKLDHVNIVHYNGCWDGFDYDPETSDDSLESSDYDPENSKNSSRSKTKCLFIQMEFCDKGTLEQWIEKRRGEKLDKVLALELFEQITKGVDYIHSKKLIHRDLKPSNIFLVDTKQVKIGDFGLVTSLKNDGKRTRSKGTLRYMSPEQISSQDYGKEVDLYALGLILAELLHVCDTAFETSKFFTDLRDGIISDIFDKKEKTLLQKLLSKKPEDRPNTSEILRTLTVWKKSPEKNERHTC
T1 sequence (P19525 1-184): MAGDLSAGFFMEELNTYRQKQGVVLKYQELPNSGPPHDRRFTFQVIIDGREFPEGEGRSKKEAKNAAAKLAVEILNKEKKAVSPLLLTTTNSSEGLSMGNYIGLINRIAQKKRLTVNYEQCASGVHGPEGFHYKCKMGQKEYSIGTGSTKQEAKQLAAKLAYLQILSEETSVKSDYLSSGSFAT
Sequence of 229-kinase (UniProt P19525) (P19525 229-551): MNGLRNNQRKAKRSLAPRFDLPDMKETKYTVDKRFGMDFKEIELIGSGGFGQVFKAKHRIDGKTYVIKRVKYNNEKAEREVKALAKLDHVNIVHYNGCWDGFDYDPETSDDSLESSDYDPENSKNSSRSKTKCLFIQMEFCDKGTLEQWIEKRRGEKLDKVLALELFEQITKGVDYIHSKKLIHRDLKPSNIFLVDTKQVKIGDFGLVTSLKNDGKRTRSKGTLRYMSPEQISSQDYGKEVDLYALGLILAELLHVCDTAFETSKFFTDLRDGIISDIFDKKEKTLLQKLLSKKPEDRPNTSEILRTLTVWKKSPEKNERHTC
Sequence of 229-kinase (UniProt P19525 229-551) (P19525 229-551): as above
Sequence of 242-kinase (UniProt P19525 242-551) (P19525 242-551): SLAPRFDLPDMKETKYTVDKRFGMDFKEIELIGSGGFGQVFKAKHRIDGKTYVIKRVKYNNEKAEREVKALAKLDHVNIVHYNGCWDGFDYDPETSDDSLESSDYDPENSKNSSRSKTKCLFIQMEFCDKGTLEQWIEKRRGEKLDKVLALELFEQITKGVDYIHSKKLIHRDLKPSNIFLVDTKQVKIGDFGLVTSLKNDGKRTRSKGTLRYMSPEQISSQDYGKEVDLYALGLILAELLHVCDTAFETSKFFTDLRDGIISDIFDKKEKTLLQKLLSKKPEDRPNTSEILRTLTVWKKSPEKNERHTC
Sequence of 242-kinase (UniProt P19525) (P19525 242-551): as above
Sequence of 185-kinase (P19525 185-551): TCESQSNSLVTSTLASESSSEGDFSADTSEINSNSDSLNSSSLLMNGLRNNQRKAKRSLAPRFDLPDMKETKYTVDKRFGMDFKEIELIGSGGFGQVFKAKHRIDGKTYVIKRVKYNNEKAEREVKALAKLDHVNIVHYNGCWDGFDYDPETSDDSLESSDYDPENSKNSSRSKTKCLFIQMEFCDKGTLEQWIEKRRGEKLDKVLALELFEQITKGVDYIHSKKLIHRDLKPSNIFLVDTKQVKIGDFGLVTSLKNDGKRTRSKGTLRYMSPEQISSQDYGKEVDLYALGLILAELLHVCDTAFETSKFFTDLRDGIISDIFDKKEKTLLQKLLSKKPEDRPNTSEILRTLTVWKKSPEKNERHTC

Molecule	Kd [3] [µM]	Kd [4, 9] [µM]	Kd [5] [µM]	other results
ds30	–	–	–	Kd [1]: 3.8 µM and 3.27 µM; Kd [2]: 19.9 µM
TTTTTTTTTTTTTTTTTTTTTTTTTTTTTT (ssDNA) [dT30]	2.59	–	–	–
GGAGAACUUAAUGCCGGAGACCAAAGACUU (ssRNA, 5'-OH) [Het30]	–	1.07	8.21	–
GGAGAACUUAAUGCCGGAGACCAAAGACUU (ssRNA, 5'-triphosphate) [ppp-Het30]	–	0.825	5.36	–
UUUUUUUUUUUUUUUUUUUUUUUUUUUUUU (ssRNA) [U30]	1.91	–	–	Kd [6]: 90 µM; Kd [7]: 31.9 µM; Kd ([4]; single strand): 3.51 µM; Kd [8]: 8.42 µM
